{
  "source": "patent US12365732",
  "about": "(23ANDME, dated 2025)",
  "key": {"[1]": {"molecular_target": "T1, hu-CD96 isoform 2 on CHO cells (human, UniProt P40200 22-585)", "T1 construct": "also called CHO-CD96 (isoform 2); CD96-CHOs", "T1 sequence": "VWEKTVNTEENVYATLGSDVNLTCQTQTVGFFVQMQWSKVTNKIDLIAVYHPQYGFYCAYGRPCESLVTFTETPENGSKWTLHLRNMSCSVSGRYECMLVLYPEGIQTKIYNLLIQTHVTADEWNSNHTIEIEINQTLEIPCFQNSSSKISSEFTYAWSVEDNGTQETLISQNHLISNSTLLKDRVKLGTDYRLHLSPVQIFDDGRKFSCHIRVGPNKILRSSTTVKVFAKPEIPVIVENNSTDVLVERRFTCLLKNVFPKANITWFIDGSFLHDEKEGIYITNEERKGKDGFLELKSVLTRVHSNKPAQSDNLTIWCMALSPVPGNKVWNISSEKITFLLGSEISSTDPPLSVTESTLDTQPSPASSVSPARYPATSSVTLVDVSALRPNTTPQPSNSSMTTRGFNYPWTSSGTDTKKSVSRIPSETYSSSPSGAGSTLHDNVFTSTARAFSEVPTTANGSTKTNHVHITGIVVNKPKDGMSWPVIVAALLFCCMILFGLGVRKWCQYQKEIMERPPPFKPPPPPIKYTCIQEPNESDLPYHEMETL", "test": "FACS, % positive curve", "method": "Isoform 1 of hu-CD96 (Origene, catalog #RC213845) was transiently expressed in HEK293T cells following standard lipofectamine or Fugene transfection protocol. […] Cells were washed, and binding was detected by incubation with anti-mouse IgG-FITC (Biolegend, catalog #406001) for 20 minutes at 4° C. Cell binding was analyzed by flow cytometry with a CytoFLEX (Beckman Coulter). Binding curves were calculated as a percentage of cells positive for bound antibody.\nIsoform 2 of hu-CD96 (DNA construct: Origene, catalog #RC221005) was expressed on a single-cell-clone-derived CHO stable cell line. Binding of the anti-CD96 antibodies to the CHO cells were determined as described above with isoform 1 of hu-CD96."}, "[2]": {"molecular_target": "T1, hu-CD96 isoform 2 on CHO cells", "test": "FACS, CD155-Fc-FLAG 10 nM, Ab 0.032 nM", "method": "CHO cells stably expressing isoform 2 of hu-CD96 (Origene, catalog #RC221005) were incubated with anti-CD96 antibodies for 20 minutes at 4° C. The cells were washed, and then incubated with 10 nM human CD155-Fc-FLAG for 30 minutes at 4° C. Cells were washed, and then human CD155-Fc-FLAG binding was detected by incubation with anti-FLAG-APC (Columbia Biosciences, catalog #D3-1718-1MG) for 20 minutes at 4° C. Cell binding was analyzed by flow cytometry with a CytoFLEX (Beckman Coulter). CD155 binding is represented as median fluorescence intensity (MedFI).\nAs shown in Table 20 (below), the anti-CD96 antibodies, mAb1.v7.NGS8, mAb1.v7.NGS9, mAb1.v7.NGS10, mAb1.v7.NGS11, and h10G1 inhibited soluble hu-CD155 binding to CD96-expressing CHO cells dose-dependently and potently. The antibody NK92.39 (Fuchs et al., 2004; Biolegend catalog #338405) inhibited receptor binding similarly."}, "[3]": {"molecular_target": "T2, cynomolgus monkey CD96 on cynomolgus monkey PBMCs (cynomolgus monkey, UniProt A0A2K5TWV6 22-569)", "T2 construct": "whole, on cells", "T2 sequence": "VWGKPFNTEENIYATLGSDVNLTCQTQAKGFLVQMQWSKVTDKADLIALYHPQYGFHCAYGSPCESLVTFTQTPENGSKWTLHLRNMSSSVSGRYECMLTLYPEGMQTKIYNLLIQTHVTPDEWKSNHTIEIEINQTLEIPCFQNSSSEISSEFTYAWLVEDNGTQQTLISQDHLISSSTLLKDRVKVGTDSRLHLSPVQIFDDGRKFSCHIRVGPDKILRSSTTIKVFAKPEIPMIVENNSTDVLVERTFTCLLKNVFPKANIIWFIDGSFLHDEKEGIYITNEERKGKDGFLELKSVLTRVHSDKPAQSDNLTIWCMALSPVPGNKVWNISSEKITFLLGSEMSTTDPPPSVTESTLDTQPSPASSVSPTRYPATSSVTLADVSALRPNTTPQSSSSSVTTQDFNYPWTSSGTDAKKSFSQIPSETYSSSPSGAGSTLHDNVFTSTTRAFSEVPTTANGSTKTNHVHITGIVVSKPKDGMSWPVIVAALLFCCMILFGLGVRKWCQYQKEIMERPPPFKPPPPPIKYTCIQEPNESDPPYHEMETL", "test": "FACS, Ab 0.00512 nM", "method": "The ability of the anti-CD96 antibodies to bind primary immune cells from human and cynomolgus monkey with lower level of receptor expression was measured. Human PBMCs (StemCell Technologies, catalog #70025) and cynomolgus monkey PBMCs (Primate Biologicals, catalog #CM-MC) were incubated with human TruStain FcX (Biolegend, catalog #422302) for 10 minutes at 4° C., followed by incubation with an anti-CD96 antibody for 20 minutes at 4° C. Cells were washed and the anti-CD96 antibody binding was detected by incubation with anti-mouse IgG-PE (Thermo Fisher, catalog #M30204) or anti-human IgG (Fab) 2-PE (Thermo Fisher, catalog #H10104) for 20 minutes at 4° C. Cells were washed, and immune subtypes were labeled with anti-CD3 (BD, catalog #557705), anti-CD4 (Biolegend, catalog #317424) and anti-CD8 (BD, catalog #557760) for 20 minutes at 4° C. Cell binding was analyzed by flow cytometry with a CytoFLEX (Beckman Coulter). Binding curves were calculated as a percentage of cells positive for bound antibody in the cell type of interest."}},
  "data": [
    {"binder": "10G1 (clone 10G1.3G8), purified hybridoma antibody (antibody, V domains shown, murine hybridoma IgG) VH: QIQLVQSGPELKKPGETVKISCKASGYPFTTYGMSWVKQAPGKGLKWMGWINTDSGVPTYADDFKGRFAFSLETSANTAYLQINSLKNEDAATYFCARNIYYGWGNFDYWGQGTILTVSS VL: DILMTQSPTTLSVTPGETVSLSCRASQDIYRNLHWYQQKSQGTPRLLIKHASDSISGIPSRFTGSGSGTDFTLSINSVKPEDEGIYYCLQGYSMPYTFGGGTKLEIK", "values": [
      {"measurement": "EC50", "setting": "[1]", "value": 0.23, "unit": "nM"}
    ]},
    {"binder": "h10G1 IgG (humanized 10G1) (antibody, V domains shown, human IgG1 N297G) VH: EIQLVQSGSELKKPGASVKVSCKASGYPFTTYGMSWVRQAPGQGLEWMGWINTDSGVPTYADDFKGRFVFSLDTSVSTAYLQISSLKAEDTAVYFCARNIYYGWGNFDYWGQGTLVTVSS VL: EIVMTQSPDFQSVTPKEKVTITCRASQDIYRNLHWYQQKPDQTPKLLIKHASDSISGIPSRFSGSGSGTDFTLTINSLEAEDAAAYYCLQGYSMPYTFGGGTKVEIKG", "values": [
      {"measurement": "CD155-Fc binding (MedFI)", "setting": "[2]", "value": 52100, "unit": "MedFI"},
      {"measurement": "% positive", "setting": "[3]", "value": 7.4, "unit": "%"}
    ]},
    {"binder": "mAb1.v7 IgG (humanized 12F8) (antibody, V domains shown, human IgG1 N297G) VH: EVQLVQSGAEVKKPGASVKVSCKASGFTFTNNWMHWVRQAPGQGLEWIGMIHPNSGITNINEKFKNRVTMTTDTSTSTAYMELRSLRSEDTAVYYCRSDGTYEGYFDYWGQGTLVTVSS VL: DIQLTQSPSSLSASVGDRVTITCKASQNVGTAIVWYQQKPGKAPKVLIYSASTRYTGVPSRFSGSGSGTDFTLTISSLQPEDFATYYCQQYSSSPLTFGQGTKVEIKG", "values": [
      {"measurement": "EC50", "setting": "[1]", "value": 0.52, "unit": "nM"}
    ]},
    {"binder": "mAb1.v7.NGS10 IgG (antibody, V domains shown, human IgG1 N297G) VH: EVQLVQSGAEVKKPGASVKVSCKASGFTFTNNFMHWVRQAPGQGLEWIGFIHANSGITNINEKFKNRVTMTTDTSTSTAYMELRSLRSEDTAVYYCRSDGIYEGYFDYWGQGTLVTVSS VL: DIQLTQSPSSLSASVGDRVTITCKASQNVGTAIVWYQQKPGKAPKVLIYSASTRYTGVPSRFSGSGSGTDFTLTISSLQPEDFATYYCQQYSSSPLTFGQGTKVEIKG", "values": [
      {"measurement": "CD155-Fc binding (MedFI)", "setting": "[2]", "value": 57700, "unit": "MedFI"},
      {"measurement": "% positive", "setting": "[3]", "value": 9.5, "unit": "%"}
    ]},
    {"binder": "mAb1.v7.NGS9 IgG (antibody, V domains shown, human IgG1 N297G) VH: EVQLVQSGAEVKKPGASVKVSCKASGFTFTNNFMHWVRQAPGQGLEWIGMIHANSGITNINEKFKNRVTMTTDTSTSTAYMELRSLRSEDTAVYYCRSDGVYEGYFDYWGQGTLVTVSS VL: DIQLTQSPSSLSASVGDRVTITCKASQNVGTAIVWYQQKPGKAPKVLIYSASTRYTGVPSRFSGSGSGTDFTLTISSLQPEDFATYYCQQYSSSPLTFGQGTKVEIKG", "values": [
      {"measurement": "CD155-Fc binding (MedFI)", "setting": "[2]", "value": 53000, "unit": "MedFI"},
      {"measurement": "% positive", "setting": "[3]", "value": 7.1, "unit": "%"}
    ]},
    {"binder": "mAb1.v7.NGS11 IgG (antibody, V domains shown, human IgG1 N297G) VH: EVQLVQSGAEVKKPGASVKVSCKASGFTFTNNFMHWVRQAPGQGLEWIGFIHANSGITNINEKFKNRVTMTTDTSTSTAYMELRSLRSEDTAVYYCRSDGVYEGYFDYWGQGTLVTVSS VL: DIQLTQSPSSLSASVGDRVTITCKASQNVGTAIVWYQQKPGKAPKVLIYSASTRYTGVPSRFSGSGSGTDFTLTISSLQPEDFATYYCQQYSSSPLTFGQGTKVEIKG", "values": [
      {"measurement": "CD155-Fc binding (MedFI)", "setting": "[2]", "value": 57700, "unit": "MedFI"},
      {"measurement": "% positive", "setting": "[3]", "value": 10.4, "unit": "%"}
    ]},
    {"binder": "9H4, purified hybridoma antibody (antibody, V domains shown, murine hybridoma IgG) VH: EVQLLETGGGLVKSGGSLKLSCAASGFTFSDYYMYWVRQTPEKRLEWVAAISDDGTYTYYPDSVKGRFTISRDNANNYLYLQMSSLKSEDTAIYYCAKAGSYDYFDVWGAGTTVTVSS VL: DIVLTQSPASLAVSLGQRAIISCKASQSVTFADTGLMHWYQQKPGQQPKLLIYRASNLEVGVPTRFSGSGSGTDFTLNIHPVEEEDVATYYCQQSREYPWTFGGGTKLEIK", "values": [
      {"measurement": "EC50", "setting": "[1]", "value": 0.38, "unit": "nM"}
    ]},
    {"binder": "7E5, purified hybridoma antibody (antibody, V domains shown, murine hybridoma IgG) VH: QVQLKESGPGLVAPSQSLSIICTVSGFSLTNYGIHWIRQPPGKGLEWLGIIWAGGSTNYNSALMSRLTISKDNSKSQVFLKMNSLQTNDTAIYYCARVSMMGFAYWGQGTLVTVSA VL: QAVVTQESALTTSPGETVTLTCRSSTGAVTTSNYANWVQEKPDHLFTGLIGGTNNRAPGVPARFSGSLIGDKAALTITGAQTEDEAIYFCSLWYGSHWVFGGGTKLTVL", "values": [
      {"measurement": "EC50", "setting": "[1]", "value": 0.11, "unit": "nM"}
    ]}
  ]
}
